Assay results reported in patent US20180312587A1 (ADURO BIOTECH HOLDINGS EUROPE B V, published 2018).

T1: hSIRPαV4 (NA11832_V4) (human, UniProt P78324 31-504)
T1 construct: also called human SIRPαV4
T1 chain: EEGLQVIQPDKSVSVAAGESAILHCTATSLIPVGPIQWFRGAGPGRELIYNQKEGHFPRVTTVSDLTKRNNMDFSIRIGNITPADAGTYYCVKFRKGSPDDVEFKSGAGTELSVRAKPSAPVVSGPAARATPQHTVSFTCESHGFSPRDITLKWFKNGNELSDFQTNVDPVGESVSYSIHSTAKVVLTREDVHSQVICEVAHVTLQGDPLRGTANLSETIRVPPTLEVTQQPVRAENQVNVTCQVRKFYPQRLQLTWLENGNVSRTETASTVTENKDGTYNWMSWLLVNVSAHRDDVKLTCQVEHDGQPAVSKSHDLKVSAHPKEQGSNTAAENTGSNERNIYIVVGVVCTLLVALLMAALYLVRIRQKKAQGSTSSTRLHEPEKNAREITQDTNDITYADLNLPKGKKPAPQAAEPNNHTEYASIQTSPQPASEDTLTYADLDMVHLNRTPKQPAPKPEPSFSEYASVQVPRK

B1: hSIRPα.50A (antibody, V domains shown)
VH: QVQLQQSGPELVKPGASVRISCKASGFTFTNYYIHWVKQRPGQGLEWIGWIYPGNVNTKYNEKFKAKATLTADKSSTTAYMQLSSLASEDSAVYFCARPTIIATDFDVWGAGTTVTVSS
VL: DIVMTQSHKFMSTSVGDRVNITCKASQGVGTAVGWYQQKPGQSPRLLIYWASTRHTGVPDRFTGSGSGTDFSLAISNVQSEDLADYFCQQYSTYPFTFGGGTNLEIK
notes: light chain constant domain not tied; also called mouse hSIRPα.50A; hSIRPα.50A.mIgG1
B2: hSIRPα.40A (antibody, mouse IgG1, kappa, V domains shown)
VH: EVQFQQSGTVLARPGTSVKMSCKASGSTFTSYWMHWVKQGPGQGLQWIGAIYPVNNDTTYNQKFKGKAELTVVTSTSTAYMEVSSLTNEDSAVYYCTRSFYYSLDAAWFVYWGQGTLVTVSA
VL: DIQMTQSPSSLSASLGERVSLTCRASQDIGSRLNWLQQEPDGTIKRLIYATSSLDSGVPKRFSGSRSGSDYSLTISGLESEDFVDYYCLQYASSPFTFGGGTKLEINR
notes: mouse antibody, full chains without signal peptide; also called mouse hSIRPα.40A

Key:
[1] = target: T1, hSIRPαV4 (NA11832_V4); experiment: CELISA, CHO-K1 transfectants; average of two experiments
Description: (§1) The binding specificity of antibody hSIRPα.50A to hSIRPα was compared antibody KWAR23 (Canadian Patent 2939293 A1), in a CELISA format. CHO-K1 cells were transiently transfected with hSIRPαV1, hSIRPαV2, hSIRPβ1, and hSIRPγ (GenBank accession: NM_018556.3) (SEQ ID NO: 39) cDNAs. Subsequently, hSIRPα binding was assessed by CELISA using CHO-K1.hSIRPαV1, CHO-K1.hSIRPαV2, CHO-K1.hSIRPβ1, and CHO-K1.hSIRPγ cells. Detection of bound antibody was performed with goat-anti-mouse IgG-HRP (Southern Biotech) for mouse antibodies including hSIRPα.50A and control antibodies or, alternatively, with goat-anti-human IgG-HRP conjugate (Jackson Immuno Research) for the KWAR23 antibody. KWAR23 (SEQ ID NO: 130; SEQ ID NO: 131) was expressed as a chimeric human IgG4 kappa antibody in CHO cells. As shown in FIG. 2 and the following Table 9, KWAR23 antibody cross-reacts with all members of the SIRP receptor family tested: it binds to hSIRPαV1, hSIRPαV2, hSIRPβ1, and hSIRPγ.
(§2) In addition, the specificity of hSIRPα.50A for all known of hSIRPα alleles (allelic variants as described by Takenaka et al., 2007, Nat Immunol. 8:1313-1323) was further investigated by CELISA using the same strategy as above. To this end, hSIRPα.50A binding was assessed using CHO-K1 cells that were transiently transfected with cDNAs encoding full length hSIRPαV1, hSIRPαV2, hSIRPαV3 (NA07056_V3) (SEQ ID NO: 43), hSIRPαV4 (NA11832_V4) (SEQ ID NO: 45), hSIRPαV5 (NA18502_V5) (SEQ ID NO: 47), hSIRPαV6 (NA18507_V6) (SEQ ID NO: 49), hSIRPαV8 (NA18570_V8) (SEQ ID NO: 51), and hSIRPαV9 (NA18943_V9) (SEQ ID NO: 53).

[2] = target: T2, hSIRPαV3 (NA07056_V3) (human, UniProt P78324 31-504); experiment: as above
T2 construct: also called human SIRPαV3
Description: as §1, §2

[3] = target: T3, hSIRPαV5 (NA18502_V5) (human, UniProt P78324 31-504); experiment: as above
T3 construct: also called human SIRPαV5
Description: as §1, §2

[4] = target: T4, hSIRPαV9 (NA18943_V9) (human, UniProt P78324 31-504); experiment: as above
T4 construct: also called human SIRPαV9
Description: as §1, §2

[5] = target: T5, human SIRPα variant 1 (human, UniProt P78324 31-504); experiment: as above
T5 construct: full length ORF on transfected CHO-K1 or HEK293 cells; entry includes the signal peptide; also called hSIRPαV1; SIRPαV1
Description: as §1, §2

[6] = target: T6, human SIRPα variant 2 (human, UniProt P78324 31-504); experiment: as above
T6 construct: full length ORF on transfected CHO-K1 cells; also called hSIRPαV2; SIRPαV2
Description: as §1, §2

[7] = target: T7, hSIRPαV8 (NA18570_V8) (human, UniProt P78324 31-504); experiment: as above
T7 construct: also called human SIRPαV8
Description: as §1, §2

[8] = target: T8, hSIRPαV6 (NA18507_V6) (human, UniProt P78324 31-504); experiment: as above
T8 construct: also called human SIRPαV6
Description: as §1, §2

[9] = target: T5, human SIRPα variant 1; experiment: flow cytometry, CHO-K1.hSIRPαV1 stable cells
Description: Binding of the parental and humanized antibodies to hSIRPα was assessed by flow cytometry using the CHO-K1.hSIRPαV1 stable cell line. CHO-K1.hSIRPαV1 cells were seeded in 96-well round bottomed tissue culture plates and incubated for 40 minutes with the humanized hSIRPα.40A antibody variants (20 μg/mL and dilutions thereof) in PBS/1% BSA at 4° C. […] After this labeling procedure, cells were washed two times, resuspended in PBS/1% BSA, containing 0.1 μg/mL DAPI (BioLegend), and analysed by flow cytometry on the FACSVerse (BD Biosciences). Data were processed and analysed with FlowJo V10 software (FlowJo, LLC).

T5 sequence (P78324 31-504 limits assumed, change not shown): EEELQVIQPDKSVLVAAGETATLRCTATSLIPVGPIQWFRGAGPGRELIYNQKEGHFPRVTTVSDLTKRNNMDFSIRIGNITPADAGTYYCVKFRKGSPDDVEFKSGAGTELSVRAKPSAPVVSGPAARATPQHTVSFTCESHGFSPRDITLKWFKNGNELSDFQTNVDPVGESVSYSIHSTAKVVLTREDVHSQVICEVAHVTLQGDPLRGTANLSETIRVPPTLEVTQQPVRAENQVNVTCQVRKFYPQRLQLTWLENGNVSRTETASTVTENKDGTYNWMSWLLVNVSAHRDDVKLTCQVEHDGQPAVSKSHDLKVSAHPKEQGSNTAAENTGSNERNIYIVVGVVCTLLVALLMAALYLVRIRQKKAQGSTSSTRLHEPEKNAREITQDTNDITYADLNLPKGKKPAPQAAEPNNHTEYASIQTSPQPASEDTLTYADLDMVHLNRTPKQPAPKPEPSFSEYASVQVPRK
T6 sequence (P78324 other isoform, or with tags, fused parts or gaps mutant limits assumed): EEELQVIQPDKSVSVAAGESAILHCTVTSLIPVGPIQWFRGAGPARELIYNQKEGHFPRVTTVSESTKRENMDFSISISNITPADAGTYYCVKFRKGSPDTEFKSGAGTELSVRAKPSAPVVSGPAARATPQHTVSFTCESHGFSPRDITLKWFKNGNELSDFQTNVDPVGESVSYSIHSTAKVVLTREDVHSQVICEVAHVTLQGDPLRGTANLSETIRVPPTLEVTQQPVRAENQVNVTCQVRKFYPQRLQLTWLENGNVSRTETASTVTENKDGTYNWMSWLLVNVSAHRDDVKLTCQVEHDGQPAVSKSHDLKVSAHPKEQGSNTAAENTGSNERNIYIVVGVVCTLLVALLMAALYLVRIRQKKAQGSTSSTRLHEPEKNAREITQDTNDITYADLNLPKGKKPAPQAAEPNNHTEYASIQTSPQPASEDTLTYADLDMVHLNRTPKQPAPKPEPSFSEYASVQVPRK
T7 sequence (P78324 other isoform, or with tags, fused parts or gaps limits assumed): as the sequence (P78324 other isoform, or with tags, fused parts or gaps mutant limits assumed) above, with S14L, S20T, I22T, H24R, V27A counted along it
T4 sequence (P78324 31-504 G109S limits assumed): as the sequence (P78324 31-504 limits assumed, change not shown) above, with G79S counted along it
T3 sequence (P78324 other isoform, or with tags, fused parts or gaps limits assumed): as the sequence (P78324 31-504 limits assumed, change not shown) above, with S12F counted along it
T2 sequence (P78324 other isoform, or with tags, fused parts or gaps limits assumed): as the sequence (P78324 other isoform, or with tags, fused parts or gaps mutant limits assumed) above, with H24L counted along it
T8 sequence (P78324 31-504 S105P limits assumed): as the sequence (P78324 31-504 limits assumed, change not shown) above, with S75P counted along it

| EC50 [1] | EC50 [2] | EC50 [3] | EC50 [4] | EC50 [5] | EC50 [6] | EC50 [7] | EC50 [8] | EC50 [9] | Binder |
| --- | --- | --- | --- | --- | --- | --- | --- | --- | --- |
| 0.824 nM | 0.688 nM | 0.765 nM | 0.733 nM | 0.936 nM | 0.665 nM | 0.644 nM | 0.954 nM | – | B1 |
| – | – | – | – | – | – | – | – | 0.022 nM | B2 |
